Consider 2 molecules from paper PMC5517500, “Cyclic di-GMP regulates Mycobacterium tuberculosis resistance to ethionamide” (Scientific Reports, 2017).

One data set has as its target T1, Ycdc (Escherichia coli, UniProt P0ACU2).
T1 construct: gene rutR
T1 sequence (P0ACU2 1-212): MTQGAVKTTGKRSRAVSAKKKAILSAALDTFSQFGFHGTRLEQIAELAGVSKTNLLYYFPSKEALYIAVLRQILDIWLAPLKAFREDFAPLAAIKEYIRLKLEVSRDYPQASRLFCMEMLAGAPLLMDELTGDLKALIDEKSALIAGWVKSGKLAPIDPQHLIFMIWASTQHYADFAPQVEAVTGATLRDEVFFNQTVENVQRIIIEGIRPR
The data set can be described thus: incubation with bio-c-di-GMP (Supplementary Fig. S4b). It is filed as binding.

Data set [1] addresses T2, EthR (Mycobacterium tuberculosis H37Rv, UniProt P9WMC1 1-216). The data set can be described thus: BLI; 50 uM c-di-GMP. Conditions: protein: recombinant; tags: 6xHis (E. coli, pET28a) or GST (yeast); chain copies: 2; label: biotin on second strand (Ms6440pr).
Data set [2] addresses T2, EthR. The data set can be described thus: BLI; no c-di-GMP. Conditions: protein: recombinant; tags: 6xHis (E. coli, pET28a) or GST (yeast); chain copies: 2; label: biotin on second strand (Ms6440pr).

T2 sequence (P9WMC1 whole entry): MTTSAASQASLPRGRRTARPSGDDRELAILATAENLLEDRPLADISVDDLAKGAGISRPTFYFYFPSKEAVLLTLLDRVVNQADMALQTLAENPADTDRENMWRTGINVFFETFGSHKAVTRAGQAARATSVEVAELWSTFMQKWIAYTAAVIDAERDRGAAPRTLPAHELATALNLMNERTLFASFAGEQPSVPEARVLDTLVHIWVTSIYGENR

As to `Nc1nc2c(ncn2[C@@H]2O[C@@H]3COP(=O)(O)O[C@H]4[C@@H](O)[C@H](n5cnc6c(=O)[nH]c(N)nc65)O[C@@H]4COP(=O)(O)O[C@H]3[C@H]2O)c(=O)[nH]1` [c-di-GMP], the “incubation with bio-c-di-GMP (Supplementary Fig. S4b)” value at Ycdc is given as “we incubated Escherichia coli Ycdc with bio-c-di-GMP, the result clearly showed that they bind each other”.

B1: etha promoter DNA (dsDNA)
DNA 1: CGGTCATGGATCCACGCTATCAACGTAATGTCGAGGCCGTCAACGAGATGTCGACACTATCGA
DNA 2: CTGACTGGCCGCGGAGGTGGTCACCCTGGCAGCTTACTACGTGTCGATAGATGTCGACATCTCGTTGACGG
Turning to B1, the figures for the Kd with EthR [1] and in the data set with EthR [2] were 1120 nM and 1340 nM, respectively.
